Patent EP4703384A1 (Chia Tai Tianqing Pharmaceutical Group Co., Ltd., dated 2026)

B1: GC35 (bispecific antibody, human IgG1, kappa, L234A L235A)
heavy: EVQLVQSGAEVVKPGASVKMSCKASGYTFTNYVMHWVKQAPGQGLEWMGYFNPYNDGTNYNEKFKGRVTLTSDTSANTAYMELSSLRSEDTAVYYCARGGVRRYFDVWGQGTTVTVSSASTKGPSVFPLAPSSKSTSGGTAALGCLVKDYFPEPVTVSWNSGALTSGVHTFPAVLQSSGLYSLSSVVTVPSSSLGTQTYICNVNHKPSNTKVDKKVEPKSCDKTHTCPPCPAPEAAGGPSVFLFPPKPKDTLMISRTPEVTCVVVDVSHEDPEVKFNWYVDGVEVHNAKTKPREEQYNSTYRVVSVLTVLHQDWLNGKEYKCKVSNKALAAPIEKTISKAKGQPREPQVCTLPPSREEMTKNQVSLSCAVKGFYPSDIAVEWESNGQPENNYKTTPPVLDSDGSFFLVSKLTVDKSRWQQGNVFSCSVMHEALHNHYTQKSLSLSPGK
light: DIQMTQSPSSLSASVGDRVTITCRASQDIGSNLNWLQLGPGGAIKRLIYATFSLDSGVPSRFSGSRSGSDYTLTISSLQPEDFVDYYCQQYANFPPTFGGGTKVEIKRTVAAPSVFIFPPSDEQLKSGTASVVCLLNNFYPREAKVQWKVDNALQSGNSQESVTEQDSKDSTYSLSSTLTLSKADYEKHKVYACEVTHQGLSSPVTKSFNRGEC
chain: ELVVTQEPSLTTSPGGTVTLTCRSSTGAVTTSNYANWVQQKPGQAPRGLIGGTNKRAPGTPARFSGSLLGGKAALTITGVQPEDEAEYYCALWYSNLWVFGGGTKLTVLGGGGSGGGGSGGGGSEVQLVESGGGLVQPGGSLRLSCAASGFTFNTYAMNWVRQAPGKGLEWVARIRSKYNNYATYYADSVKDRFTISRDDSKNTAYLQMNNLKTEDTAMYYCVRHGNFGNSYVSWFAYWGQGTLVTVSSGEPKSSDKTHTCPPCPAPEAAGGPSVFLFPPKPKDTLMISRTPEVTCVVVDVSHEDPEVKFNWYVDGVEVHNAKTKPREEQYNSTYRVVSVLTVLHQDWLNGKEYKCKVSNKALAAPIEKTISKAKGQPREPQVYTLPPCREEMTKNQVSLWCLVKGFYPSDIAVEWESNGQPENNYKTTPPVLDSDGSFFLYSKLTVDKSRWQQGNVFSCSVMHEALHNRYTQKSLSLSPGK
notes: also called anti-GPRC5D/anti-CD3 bispecific antibody GC35
B2: GC39 (bispecific antibody, human IgG1, kappa, L234A L235A)
heavy: EVQLVESGGGLVQPGGSRRVSCAASGFTFSSFGMHWVRQAPGKGLEWVAYISRGSSTIYYADTVKGRFTISRDNAKNSLYLQMNSLRAEDTAVYYCARSGYGSSSYYFDYWGQGTTVTVSSASTKGPSVFPLAPSSKSTSGGTAALGCLVKDYFPEPVTVSWNSGALTSGVHTFPAVLQSSGLYSLSSVVTVPSSSLGTQTYICNVNHKPSNTKVDKKVEPKSCDKTHTCPPCPAPEAAGGPSVFLFPPKPKDTLMISRTPEVTCVVVDVSHEDPEVKFNWYVDGVEVHNAKTKPREEQYNSTYRVVSVLTVLHQDWLNGKEYKCKVSNKALAAPIEKTISKAKGQPREPQVCTLPPSREEMTKNQVSLSCAVKGFYPSDIAVEWESNGQPENNYKTTPPVLDSDGSFFLVSKLTVDKSRWQQGNVFSCSVMHEALHNHYTQKSLSLSPGK
light: EIVLTQSPATLSASPGERATMSCRASSSIRSSYLHWYQQKPGQSPRLWIYSTSNLASGVPARFSGSGSGTDYTLTISSLEPEDAAVYYCQQFSGYPLTFGGGTKVEIKRTVAAPSVFIFPPSDEQLKSGTASVVCLLNNFYPREAKVQWKVDNALQSGNSQESVTEQDSKDSTYSLSSTLTLSKADYEKHKVYACEVTHQGLSSPVTKSFNRGEC
chain: B1 chain
notes: also called anti-GPRC5D/anti-CD3 bispecific antibody GC39

Legend:
[1] = biological target: T1, T cell surface CD3 (human, UniProt P07766 23-207; P04234 22-171; P09693 23-182); test: cell-based or functional assay
T1 sequence (P07766 23-207 limits assumed, chain 1 of 3): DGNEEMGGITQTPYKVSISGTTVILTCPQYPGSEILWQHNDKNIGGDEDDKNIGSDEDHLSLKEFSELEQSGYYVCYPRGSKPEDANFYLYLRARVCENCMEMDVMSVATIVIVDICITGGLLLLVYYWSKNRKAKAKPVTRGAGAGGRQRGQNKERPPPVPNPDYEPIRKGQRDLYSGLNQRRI
T1 sequence (P04234 22-171 limits assumed, chain 2 of 3): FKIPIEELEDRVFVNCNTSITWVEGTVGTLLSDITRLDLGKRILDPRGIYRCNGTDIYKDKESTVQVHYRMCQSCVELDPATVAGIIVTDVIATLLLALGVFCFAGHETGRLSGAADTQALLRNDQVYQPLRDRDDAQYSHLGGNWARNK
T1 sequence (P09693 23-182 limits assumed, chain 3 of 3): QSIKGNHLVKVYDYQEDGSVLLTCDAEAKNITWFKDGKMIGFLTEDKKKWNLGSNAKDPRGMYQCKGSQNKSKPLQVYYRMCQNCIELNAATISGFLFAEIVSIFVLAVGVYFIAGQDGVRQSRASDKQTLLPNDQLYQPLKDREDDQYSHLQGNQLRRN

[2] = biological target: T2, human GPRC5D protein (human, UniProt Q9NZD1 1-345); test: cell-based or functional assay
T2 sequence (Q9NZD1 whole entry): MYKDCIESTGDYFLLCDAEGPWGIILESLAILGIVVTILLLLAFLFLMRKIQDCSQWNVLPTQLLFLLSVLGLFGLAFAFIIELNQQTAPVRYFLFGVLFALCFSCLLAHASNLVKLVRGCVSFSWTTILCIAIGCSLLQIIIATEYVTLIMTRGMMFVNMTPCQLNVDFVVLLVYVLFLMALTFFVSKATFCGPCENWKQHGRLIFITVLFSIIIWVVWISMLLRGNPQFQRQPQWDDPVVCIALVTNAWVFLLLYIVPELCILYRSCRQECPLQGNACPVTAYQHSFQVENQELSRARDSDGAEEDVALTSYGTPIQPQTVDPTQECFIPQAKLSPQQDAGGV

[3] = biological target: T1, T cell surface CD3; test: FACS on human CD3+ T cells
[4] = biological target: T2, human GPRC5D protein; test: FACS on RPMI-8226 cells
[5] = biological target: T2, human GPRC5D protein; test: FACS on MM.1S cells
[6] = biological target: T2, human GPRC5D protein; test: FACS on NCI-H929 cells

| Binder | CD25/CD4 EC50(nM), activation of T cells in the presence of MM.1S [1] [nM] | CD25/CD8 EC50(nM), activation of T cells in the presence of MM.1S [1] [nM] | CD69/CD4 EC50(nM), activation of T cells in the presence of MM.1S [1] [nM] | CD69/CD8 EC50(nM), activation of T cells in the presence of MM.1S [1] [nM] | Lysis EC50(nM), MM.1S target cells with human PBMC [2] [nM] | Lysis EC50(nM), NCI-H929 target cells with human PBMC [2] [nM] | Lysis EC50(nM), RPMI-8226 target cells with human PBMC [2] [nM] | EC50 [3] [nM] | Top(MFI) [3] [MFI] | EC50 [4] [nM] | EC50 [5] [nM] | EC50 [6] [nM] |
| --- | --- | --- | --- | --- | --- | --- | --- | --- | --- | --- | --- | --- |
| B1 | 0.00999 | 0.00879 | 0.00738 | 0.00458 | 0.00534 | 0.00592 | 0.0163 | 48.9 | 54700 | 15.9 | 3.75 | 3.04 |
| B2 | 0.0596 | 0.0448 | 0.0438 | 0.0226 | 0.0335 | 0.0146 | 0.136 | 37.9 | 38000 |  | 3.71 | 16.7 |
